3 molecules from PMC8183676 (Molecular cell, 2020) can be followed below.

For series [1], the target named is T1, MDA5ΔN (human, UniProt Q9BYX4 287-1025).
T1 sequence (looked up): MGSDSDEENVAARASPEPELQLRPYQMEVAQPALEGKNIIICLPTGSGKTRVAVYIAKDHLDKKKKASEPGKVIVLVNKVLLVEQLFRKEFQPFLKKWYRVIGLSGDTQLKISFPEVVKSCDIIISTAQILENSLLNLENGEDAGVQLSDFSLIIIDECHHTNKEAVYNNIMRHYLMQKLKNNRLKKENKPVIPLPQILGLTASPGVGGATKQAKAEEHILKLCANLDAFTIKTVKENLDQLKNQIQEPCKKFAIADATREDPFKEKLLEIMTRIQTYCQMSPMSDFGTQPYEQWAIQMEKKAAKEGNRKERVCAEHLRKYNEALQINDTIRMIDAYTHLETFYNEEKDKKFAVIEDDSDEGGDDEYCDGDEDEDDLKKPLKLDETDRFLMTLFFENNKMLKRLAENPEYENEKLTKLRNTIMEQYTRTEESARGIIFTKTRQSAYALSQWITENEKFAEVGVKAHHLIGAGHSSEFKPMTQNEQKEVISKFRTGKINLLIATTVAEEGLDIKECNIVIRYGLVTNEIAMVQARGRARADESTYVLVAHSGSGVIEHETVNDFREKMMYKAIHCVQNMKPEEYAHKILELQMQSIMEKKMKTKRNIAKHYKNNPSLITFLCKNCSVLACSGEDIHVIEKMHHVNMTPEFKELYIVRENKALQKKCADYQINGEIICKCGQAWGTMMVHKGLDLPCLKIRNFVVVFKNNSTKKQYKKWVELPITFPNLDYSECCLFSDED
Kind of series: native gel or EMSA. (In general: In EMSA bound probe runs differently from free probe, usually more slowly.)

The target of series [2] is T2, full-length MDA5, fluorescein-labelled (human, UniProt Q9BYX4 1-1025, fluorescein-conjugated peptide (LPETGG) joined to the N-terminus with sortase A).
T2 sequence (looked up): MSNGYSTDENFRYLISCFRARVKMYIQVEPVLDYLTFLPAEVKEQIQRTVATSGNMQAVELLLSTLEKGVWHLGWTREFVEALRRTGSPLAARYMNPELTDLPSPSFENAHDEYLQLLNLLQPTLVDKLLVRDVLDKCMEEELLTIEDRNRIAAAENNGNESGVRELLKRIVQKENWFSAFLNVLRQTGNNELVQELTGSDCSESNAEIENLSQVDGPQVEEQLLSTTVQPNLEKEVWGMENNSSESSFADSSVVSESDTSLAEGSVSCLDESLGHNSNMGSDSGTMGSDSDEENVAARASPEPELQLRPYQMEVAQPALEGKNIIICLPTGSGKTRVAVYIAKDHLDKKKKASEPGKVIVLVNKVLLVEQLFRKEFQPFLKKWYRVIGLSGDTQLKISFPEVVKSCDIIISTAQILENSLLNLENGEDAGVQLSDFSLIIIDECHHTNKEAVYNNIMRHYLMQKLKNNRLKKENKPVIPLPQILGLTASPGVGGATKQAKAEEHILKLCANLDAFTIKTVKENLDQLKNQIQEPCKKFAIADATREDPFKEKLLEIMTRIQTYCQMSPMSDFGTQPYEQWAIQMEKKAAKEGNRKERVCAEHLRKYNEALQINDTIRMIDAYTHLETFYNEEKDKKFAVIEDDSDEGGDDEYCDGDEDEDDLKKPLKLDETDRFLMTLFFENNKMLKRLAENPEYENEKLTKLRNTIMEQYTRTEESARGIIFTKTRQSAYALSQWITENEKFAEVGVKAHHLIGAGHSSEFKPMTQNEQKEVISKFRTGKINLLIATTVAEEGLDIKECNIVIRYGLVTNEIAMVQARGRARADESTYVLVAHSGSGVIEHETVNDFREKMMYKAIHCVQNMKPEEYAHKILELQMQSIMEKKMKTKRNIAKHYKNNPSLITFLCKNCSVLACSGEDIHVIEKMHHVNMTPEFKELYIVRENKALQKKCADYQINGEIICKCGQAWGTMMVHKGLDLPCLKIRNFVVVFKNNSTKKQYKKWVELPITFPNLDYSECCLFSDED
Kind of series: native gel or EMSA.

The target of series [3] is T3, MDA5ΔN, fluorescein-labelled (human, UniProt Q9BYX4 287-1025, fluorescein-conjugated peptide (LPETGG) joined to the N-terminus with sortase A).
T3 sequence (looked up): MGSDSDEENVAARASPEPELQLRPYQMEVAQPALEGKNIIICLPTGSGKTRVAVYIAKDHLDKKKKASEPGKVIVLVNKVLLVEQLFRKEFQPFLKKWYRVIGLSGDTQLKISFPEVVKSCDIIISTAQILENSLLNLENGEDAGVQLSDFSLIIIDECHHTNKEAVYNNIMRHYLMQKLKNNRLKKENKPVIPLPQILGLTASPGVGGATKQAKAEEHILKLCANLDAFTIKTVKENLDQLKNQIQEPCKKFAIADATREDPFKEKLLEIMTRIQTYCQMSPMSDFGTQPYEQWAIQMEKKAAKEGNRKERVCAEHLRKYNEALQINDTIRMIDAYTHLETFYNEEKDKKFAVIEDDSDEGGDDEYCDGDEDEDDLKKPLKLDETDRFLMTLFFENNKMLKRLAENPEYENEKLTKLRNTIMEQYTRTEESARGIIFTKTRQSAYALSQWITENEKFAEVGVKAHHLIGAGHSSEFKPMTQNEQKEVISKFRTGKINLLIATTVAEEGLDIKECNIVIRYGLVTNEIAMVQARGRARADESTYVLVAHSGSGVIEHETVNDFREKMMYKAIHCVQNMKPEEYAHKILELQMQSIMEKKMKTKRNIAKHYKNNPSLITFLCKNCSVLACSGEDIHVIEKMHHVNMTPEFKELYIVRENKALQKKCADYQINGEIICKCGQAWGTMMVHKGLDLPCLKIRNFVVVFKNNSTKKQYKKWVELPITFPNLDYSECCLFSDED
Put plainly: native gel or EMSA.

Series [4] deals with T4, LGP2 (human, UniProt Q96C10 1-678).
T4 sequence (looked up): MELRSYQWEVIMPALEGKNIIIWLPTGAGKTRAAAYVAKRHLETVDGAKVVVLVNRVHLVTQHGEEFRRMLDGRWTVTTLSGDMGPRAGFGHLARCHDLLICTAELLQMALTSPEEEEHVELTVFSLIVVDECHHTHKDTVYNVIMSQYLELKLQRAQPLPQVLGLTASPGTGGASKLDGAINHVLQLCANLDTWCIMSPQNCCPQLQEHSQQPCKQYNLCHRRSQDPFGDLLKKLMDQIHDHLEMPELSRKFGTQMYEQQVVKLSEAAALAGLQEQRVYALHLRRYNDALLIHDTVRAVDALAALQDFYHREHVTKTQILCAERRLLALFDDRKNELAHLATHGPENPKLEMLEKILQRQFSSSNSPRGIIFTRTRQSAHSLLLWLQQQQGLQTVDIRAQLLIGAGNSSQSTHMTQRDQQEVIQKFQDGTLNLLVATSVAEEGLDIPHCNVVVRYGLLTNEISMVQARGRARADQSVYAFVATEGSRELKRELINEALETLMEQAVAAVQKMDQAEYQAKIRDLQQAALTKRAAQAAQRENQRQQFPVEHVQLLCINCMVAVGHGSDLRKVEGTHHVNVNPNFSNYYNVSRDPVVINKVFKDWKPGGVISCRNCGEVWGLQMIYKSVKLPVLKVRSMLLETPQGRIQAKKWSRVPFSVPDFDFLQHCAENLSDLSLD
Kind of series: native gel or EMSA.

Series [5] deals with T5, LGP2 (UniProt Q96C10 1-678).
T5 sequence: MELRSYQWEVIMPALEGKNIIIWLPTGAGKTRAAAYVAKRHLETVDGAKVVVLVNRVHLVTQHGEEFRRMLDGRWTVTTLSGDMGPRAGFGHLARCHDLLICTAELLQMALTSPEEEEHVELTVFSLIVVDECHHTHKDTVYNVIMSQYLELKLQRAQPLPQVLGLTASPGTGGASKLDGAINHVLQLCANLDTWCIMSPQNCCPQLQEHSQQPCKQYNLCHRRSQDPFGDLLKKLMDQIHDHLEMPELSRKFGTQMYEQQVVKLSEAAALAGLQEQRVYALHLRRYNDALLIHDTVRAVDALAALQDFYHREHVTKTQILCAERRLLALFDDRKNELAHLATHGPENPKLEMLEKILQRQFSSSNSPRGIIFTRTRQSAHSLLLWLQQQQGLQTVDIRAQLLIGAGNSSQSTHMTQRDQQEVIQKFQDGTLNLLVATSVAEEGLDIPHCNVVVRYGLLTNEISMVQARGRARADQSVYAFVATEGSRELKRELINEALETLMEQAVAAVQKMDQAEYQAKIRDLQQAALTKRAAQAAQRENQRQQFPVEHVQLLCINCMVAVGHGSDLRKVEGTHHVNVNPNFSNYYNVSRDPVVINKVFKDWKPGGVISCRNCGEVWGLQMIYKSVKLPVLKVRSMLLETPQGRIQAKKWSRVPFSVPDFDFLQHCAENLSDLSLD
Kind of series: EMSA.

B1: TRIM65 (natural protein, human, UniProt Q6PJ69 1-517, looked up)
chain: MAAQLLEEKLTCAICLGLYQDPVTLPCGHNFCGACIRDWWDRCGKACPECREPFPDGAELRRNVALSGVLEVVRAGPARDPGPDPGPGPDPAARCPRHGRPLELFCRTEGRCVCSVCTVRECRLHERALLDAERLKREAQLRASLEVTQQQATQAEGQLLELRKQSSQIQNSACILASWVSGKFSSLLQALEIQHTTALRSIEVAKTQALAQARDEEQRLRVHLEAVARHGCRIRELLEQVDEQTFLQESQLLQPPGPLGPLTPLQWDEDQQLGDLKQLLSRLCGLLLEEGSHPGAPAKPVDLAPVEAPGPLAPVPSTVCPLRRKLWQNYRNLTFDPVSANRHFYLSRQDQQVKHCRQSRGPGGPGSFELWQVQCAQSFQAGHHYWEVRASDHSVTLGVSYPQLPRCRLGPHTDNIGRGPCSWGLCVQEDSLQAWHNGEAQRLPGVSGRLLGMDLDLASGCLTFYSLEPQTQPLYTFHALFNQPLTPVFWLLEGRTLTLCHQPGAVFPLGPQEEVLS
As to B1, the binding result in series [1], in series [2] and in series [3] was “binds” throughout.

B2: GST-TRIM14^PSpry (domain or fragment, human, UniProt Q14142 238-442, looked up)
chain: QLSDPSSTKPGTLLKTSPSPERSLLLKYARTPTLDPDTMHARLRLSADRLTVRCGLLGSLGPVPVLRFDALWQVLARDCFATGRHYWEVDVQEAGAGWWVGAAYASLRRRGASAAARLGCNRQSWCLKRYDLEYWAFHDGQRSRLRPRDDLDRLGVFLDYEAGVLAFYDVTGGMSHLHTFRATFQEPLYPALRLWEGAISIPRLP
B2: the binding result in series [4] is on record as “binds”.

B3: 15 bp dsRNA (dsRNA)
RNA 1: AGGGCCCGGGAUGCU
RNA 2: AGCAUCCCGGGCCCU
For the molecule B3, in series [5], the binding result is listed as “binds”.
